Assay results published in paper PMC11455619.

Molecular target: septin-7 (commercially purified, LSBio) (UniProt Q16181)
Experiment: MST

Chain of septin-7 (commercially purified, LSBio) (Q16181 whole entry): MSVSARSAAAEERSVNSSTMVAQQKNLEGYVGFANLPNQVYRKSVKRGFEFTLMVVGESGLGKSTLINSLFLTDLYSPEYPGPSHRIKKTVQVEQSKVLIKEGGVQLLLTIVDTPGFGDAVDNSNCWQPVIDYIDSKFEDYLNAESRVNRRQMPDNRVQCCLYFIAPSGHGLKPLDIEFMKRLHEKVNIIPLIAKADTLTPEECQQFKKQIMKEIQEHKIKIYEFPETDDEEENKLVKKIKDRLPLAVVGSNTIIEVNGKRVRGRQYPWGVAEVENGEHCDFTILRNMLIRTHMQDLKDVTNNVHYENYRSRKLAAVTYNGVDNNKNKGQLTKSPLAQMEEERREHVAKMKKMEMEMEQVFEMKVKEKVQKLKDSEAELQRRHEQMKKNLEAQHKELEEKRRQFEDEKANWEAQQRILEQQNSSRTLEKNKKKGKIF

Kd: 7.48 µM
Substance: SOD1 trimer, HG trimer-stabilising mutant (printed as H46G-G108H and as H46Q-G108H) (from UniProt P00441 1-154) (enzyme)
